Series [1] can be described thus: in vivo. Further details: species or system Balb/c nude mice. Conditions: male, Balb/c nude, mouse, iv, total radioactivity, Percentage of injected dose. The text has this: (§1) Healthy male Balb/c nude mice (˜18 g) from 8 weeks old were obtained from the ARC and used for this study. Mice were imported into the CAI animal holding facility and monitored for 1 week prior to the study in order to acclimatize to the environment prior to injection of cells. All animals were provided with free access to food and water before and during the imaging experiments which were approved by the University of Queensland Animal Ethics Committee (Approval #AIBN/CAI/105/19/ARC/NHMRC).
(§2) 8-week-old male Balb/c nude mice were injected (27G needle) subcutaneously with PC3 ([…]) cells in 50 μL of 50:50 matrigel and cells in phosphate buffered saline into the right flank of each mouse. There was no evidence of ulceration at the time of dosing; the animals were closely monitored and remained in good condition apart from the growth of tumours. […] Labelled peptides were injected via the tail vein (29G needle; ˜2-3 MBq) and then mice were imaged using the Siemens Inveon PET-CT instrument at the various time points.
(§3) Organs were excised at 24 hours, with the percentage of injected dose of the administered compound determined by ex vivo gamma counting (Table 1, FIG. 5). Values are averages across 4 mice.

Series [2] in a line: Stability of aqueous formulation (radiochemical purity over time). Conditions: up to 48 hours post End of Synthesis, 3 validation batches. In kind it is physicochemical. Here is the method:
Product stability was monitored up to 48 hours post End of Synthesis (EOS) for 3 validation batches of [^64Cu]Formula (Ib) in an aqueous formulation prepared as outlined above. Due to time restrictions, identical stability sampling time points were not always achievable. […] This is attributed to radioactive decay reducing the peak area of radiolytic impurities to below detectable limits, rather than a true increase in the radiochemical purity.

Series [3] relates to PC3 tumours. In words: in vivo. Also on record: species or system Balb/c nude mice. Conditions: mouse.
Description: as §1, §2, §3

Turning to `CC(C)C[C@H](NC(=O)C[C@H](O)[C@H](CC(C)C)NC(=O)[C@H](Cc1c[nH]cn1)NC(=O)CNC(=O)[C@@H](NC(=O)[C@H](C)NC(=O)[C@H](Cc1c[nH]c2ccccc12)NC(=O)[C@H](CCC(N)=O)NC(=O)[C@@H](Cc1ccccc1)NC(=O)CCOCCOCCOCCOCCNC(=O)CCCC(=O)NC12CNCCNCC(C)(CNCCNC1)CNCCNC2)C(C)C)C(N)=O` [[^64Cu]Formula (Ib), metal not drawn], the tissue uptake (in general, the share of the injected amount in each gram of the tissue) at 24 h in series [1] (Blood) was 0.13 ± 0.04 %ID/g; in series [1] (GI Tract), 0.3 ± 0.07 %ID/g; in series [1] (Heart) it was 0.24 ± 0.02 %ID/g; in series [1] (Kidneys) it was 3.55 ± 0.79 %ID/g; in series [1] (Liver), 1.52 ± 0.18 %ID/g; in series [1] (Lungs), 0.31 ± 0.08 %ID/g. Also, the tissue uptake at 24 h in series [1] (Pancreas) was 0.23 ± 0.02 %ID/g; in series [1] (Spleen), 0.38 ± 0.06 %ID/g; in series [1] (Tail) it was 0.56 ± 0.87 %ID/g; in series [1] (Tumour), 4.09 ± 0.52 %ID/g. In addition, in series [2], the “radiochemical purity (stability)” value is on record as not below 92.4%.
As for `CC(C)C[C@H](NC(=O)C[C@H](O)[C@H](CC(C)C)NC(=O)[C@H](Cc1c[nH]cn1)NC(=O)CNC(=O)[C@@H](NC(=O)[C@H](C)NC(=O)[C@H](Cc1c[nH]c2ccccc12)NC(=O)[C@H](CCC(N)=O)NC(=O)[C@@H](Cc1ccccc1)NC(=O)CCOCCOCCOCCOCCNC(=O)CCCC(=O)NC12CNCCNCC(NC(=O)CCCC(=O)NCCOCCOCCOCCOCCC(=O)N[C@H](Cc3ccccc3)C(=O)N[C@@H](CCC(N)=O)C(=O)N[C@@H](Cc3c[nH]c4ccccc34)C(=O)N[C@@H](C)C(=O)N[C@H](C(=O)NCC(=O)N[C@@H](Cc3c[nH]cn3)C(=O)N[C@@H](CC(C)C)[C@@H](O)CC(=O)N[C@@H](CC(C)C)C(N)=O)C(C)C)(CNCCNC1)CNCCNC2)C(C)C)C(N)=O` [[^64Cu]Formula (Ia), metal not drawn], the tissue uptake at 24 h in series [1] (Blood) is 0.1 ± 0.05 %ID/g; in series [1] (GI Tract) it was 0.44 ± 0.04 %ID/g; in series [1] (Heart), 0.21 ± 0.03 %ID/g; in series [1] (Kidneys) it was 6.81 ± 0.67 %ID/g; in series [1] (Liver), 16.8 ± 1.55 %ID/g; in series [1] (Lungs), 0.36 ± 0.12 %ID/g. Further, the figures for the tissue uptake at 24 h in series [1] (Pancreas), in series [1] (Spleen) and in series [1] (Tumour) were 0.84 ± 0.06 %ID/g, 1.47 ± 0.2 %ID/g and 2.13 ± 0.86 %ID/g, respectively. Also, in series [3], the “Percentage of injected dose, Tail” value is on record as 0.28 0.05 % ID/g.
